According to patent US20200270125:

Biological target: ST-pro-factor D-His, P00746
Sequence (P00746 whole entry, looked up): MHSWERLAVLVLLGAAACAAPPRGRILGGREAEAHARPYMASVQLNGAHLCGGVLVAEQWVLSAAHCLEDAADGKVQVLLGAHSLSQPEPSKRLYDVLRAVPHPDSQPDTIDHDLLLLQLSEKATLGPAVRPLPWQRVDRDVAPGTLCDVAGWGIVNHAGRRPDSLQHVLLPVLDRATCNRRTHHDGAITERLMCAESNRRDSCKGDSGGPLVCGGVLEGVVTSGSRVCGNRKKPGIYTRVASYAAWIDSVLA

B1: recombinant human MASP-1 (CCP1-CCP2-SP) fragment, active (protein)
chain: GNECPELQPPVHGKIEPSQAKYFFKDQVLVSCDTGYKVLKDNVEMDTFQIECLKDGTWSNKIPTCKIVDCRAPGELEHGLITFSTRNNLTTYKSEIKYSCQEPYYKMLNNNTGIYTCSAQGVWMNKVLGRSLPTCLPVCGLPKFSRKLMARIFNGRPAQKGTTPWIAMLSHLNGQPFCGGSLLGSSWIVTAAHCLHQSLDPKDPTLRDSDLLSPSDFKIILGKHWRLRSDENEQHLGVKHTTLHPKYDPNTFENDVALVELLESPVLNAFVMPICLPEGPQQEGAMVIVSGWGKQFLQRFPETLMEIEIPIVDHSTCQKAYAPLKKKVTRDMICAGEKEGGKDACSGDSGGPMVTLNRERGQWYLVGTVSWGDDCGKKDRYGVYSYIHHNKDWIQRVTGVRN
cleavage of pro-factor D (Western blot): only full length MASP-3 (lane 2) and the MASP-1 CCP1-CCP2-SP) fragment (lane 5) cleaved ST-pro-factor D-His6

B2: recombinant full-length human MASP-3 (protein)
chain: HTVELNNMFGQIQSPGYPDSYPSDSEVTWNITVPDGFRIKLYFMHFNLESSYLCEYDYVKVETEDQVLATFCGRETTDTEQTPGQEVVLSPGSFMSITFRSDFSNEERFTGFDAHYMAVDVDECKEREDEELSCDHYCHNYIGGYYCSCRFGYILHTDNRTCRVECSDNLFTQRTGVITSPDFPNPYPKSSECLYTIELEEGFMVNLQFEDIFDIEDHPEVPCPYDYIKIKVGPKVLGPFCGEKAPEPISTQSHSVLILFHSDNSGENRGWRLSYRAAGNECPELQPPVHGKIEPSQAKYFFKDQVLVSCDTGYKVLKDNVEMDTFQIECLKDGTWSNKIPTCKIVDCRAPGELEHGLITFSTRNNLTTYKSEIKYSCQEPYYKMLNNNTGIYTCSAQGVWMNKVLGRSLPTCLPECGQPSRSLPSLVKRIIGGRNAEPGLFPWQALIVVEDTSRVPNDKWFGSGALLSASWILTAAHVLRSQRRDTTVIPVSKEHVTVYLGLHDVRDKSGAVNSSAARVVLHPDFNIQNYNHDIALVQLQEPVPLGPHVMPVCLPRLEPEGPAPHMLGLVAGWGISNPNVTVDEIISSGTRTLSDVLQYVKLPVVPHAECKTSYESRSGNYSVTENMFCAGYYEGGKDTCLGDSGGAFVIFDDLSQRWVVQGLVSWGGPEECGSKQVYGVYTKVSNYVDWVWEQMGLPQSVVEPQVER
cleavage of pro-factor D (Western blot): only full length MASP-3 (lane 2) and the MASP-1 CCP1-CCP2-SP) fragment (lane 5) cleaved ST-pro-factor D-His6
